T1: FcγR2a(H) (human, UniProt P12318 36-218)
T1 construct: also called human Fc-gamma receptor 2a, H form
T1 sequence (looked up): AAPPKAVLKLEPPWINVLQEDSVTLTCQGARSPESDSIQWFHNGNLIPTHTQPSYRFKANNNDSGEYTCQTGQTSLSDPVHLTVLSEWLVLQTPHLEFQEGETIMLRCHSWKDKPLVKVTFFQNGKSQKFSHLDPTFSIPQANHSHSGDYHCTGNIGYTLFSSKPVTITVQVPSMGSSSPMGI


Columns and labels:
[1] = target: T2, huTGFβ RIIFc (recombinant extracellular domain of human TGFβ RII fused to Fc) (human, UniProt P37173 23-166); test: ELISA, huTGFβ RIIFc coated, antibody titrated; LY3022859; binding ELISA
T2 construct: The Fc is not described; also called human TGFβ RIIFc; not shown: Fc part
Protocol: (§1) For binding assays, huTGFβ RIIFc was coated on microplates. […] After washing, plates were incubated with HRP-labelled goat anti-rat Fab detection antibody and subsequently TMB peroxidase substrate was added to the wells for color development. The values of absorbance at 405 nm were read on a microtiter plate reader (Molecular Devices Corp). EC₅₀ of the antibodies was analyzed using GraphPad Prism.

TGFβ RII AP [2] = target: T3, TGFβ RII AP (UniProt P37173 23-166); test: ligand blocking ELISA, TGFβ RII AP binding to coated TGFβ ligand 1 (competitor)
Protocol: (§2) A serial dilution of purified antibodies was incubated with TGFβ RII AP for 1 h in TGFβ-coated plates. After wash, p-nitrophenyl phosphate substrate was added to the wells for color development. The values of absorbance at 405 nm were read on a microtiter plate reader (Molecular Devices Corp) for the quantification of TGFβ RII binding to TGFβ. IC50 of the antibodies was analyzed using GraphPad Prism.

TGFβ RII AP [3] = target: T3, TGFβ RII AP; test: ligand blocking ELISA, TGFβ RII AP binding to coated TGFβ ligand 2 (competitor)
Protocol: as §2

TGFβ RII AP [4] = target: T3, TGFβ RII AP; test: ligand blocking ELISA, TGFβ RII AP binding to coated TGFβ ligand 3 (competitor)
Protocol: as §2

[5] = target: T2, huTGFβ RIIFc (recombinant extracellular …); test: SPR (Biacore), TGFβ RII-Fc extracellular domain immobilized at low density; LY3022859; KD
Protocol: (§3) The association (kon) and dissociation (koff) rates were determined using BIAevaluation 2.1 software.

human C1q = human C1q (human, UniProt P02745 23-245; P02746 28-253; P02747 29-245); test: cell-based or functional assay
[6] = target: T2, huTGFβ RIIFc (recombinant extracellular …); test: ELISA, huTGFβ RIIFc coated, antibody titrated; Antibody A; binding ELISA
Protocol: as §1

FcγR1 = target: T4, FcγR1 (human, UniProt P12314 16-288); test: solid phase binding assay (Meso Scale), receptor coated, antibody titrated
T4 construct: also called human Fc-gamma receptor 1
Protocol: (§4) Receptor protein (50 ng/well) was added to the wells of a Meso Scale standard bare plate in PBS. […] The plates were washed three times in PBS/0.05% Tween-20. Stock solutions of all antibodies were prepared at 0.5 mg/mL in 1% MSD blocker A in PBS-Tween and serially diluted 1:3. The indicated antibodies were added to each reaction well. Recombinant protein and antibodies were incubated for 2 hours at room temperature and then the plates were washed 2 times with PBS/0.05% Tween. Secondary antibody was added to each well. After one hour at room temperature with agitation followed by 40 mins at room temperature, the plates were washed 2 times with PBS/0.05% Tween-20. For detection, 150 μL of a 1× Read Buffer (MSD cat # R92TC-1, 4×) were added to each well. The plate was then read using a Sector Imager 2400.

FcγR2a(H) = target: T1, FcγR2a(H); test: as above
Protocol: as §4

FcγR3a (V) = target: T5, FcγR3a (V) (human, UniProt P08637 17-208); test: as above
T5 construct: V158 allotype as printed
Protocol: as §4

[7] = target: T2, huTGFβ RIIFc (recombinant extracellular …); test: SPR (Biacore), TGFβ RII-Fc extracellular domain immobilized at low density; Antibody A; KD
Protocol: as §3

T3 sequence (P37173 23-166): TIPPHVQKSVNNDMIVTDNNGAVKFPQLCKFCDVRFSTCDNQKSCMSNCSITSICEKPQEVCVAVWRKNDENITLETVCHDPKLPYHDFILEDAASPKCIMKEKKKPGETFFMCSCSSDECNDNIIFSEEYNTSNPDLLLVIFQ
T2 sequence (P37173 23-166): as above
Sequence of human C1q (P02745 23-245 limits assumed, chain 1 of 3): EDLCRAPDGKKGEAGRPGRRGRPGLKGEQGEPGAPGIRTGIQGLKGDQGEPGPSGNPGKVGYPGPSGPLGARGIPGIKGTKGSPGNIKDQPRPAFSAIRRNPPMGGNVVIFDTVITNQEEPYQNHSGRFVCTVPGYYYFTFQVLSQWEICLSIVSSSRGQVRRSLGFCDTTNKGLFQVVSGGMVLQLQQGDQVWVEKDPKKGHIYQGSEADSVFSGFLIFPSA
Sequence of human C1q (P02746 28-253 limits assumed, chain 2 of 3): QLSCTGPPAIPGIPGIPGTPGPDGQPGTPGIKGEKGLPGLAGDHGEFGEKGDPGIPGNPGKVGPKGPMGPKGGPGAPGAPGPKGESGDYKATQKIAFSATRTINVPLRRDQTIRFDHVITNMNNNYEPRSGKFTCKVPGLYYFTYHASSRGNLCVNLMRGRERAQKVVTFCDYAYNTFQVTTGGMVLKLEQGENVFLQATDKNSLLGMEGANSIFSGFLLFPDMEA
Sequence of human C1q (P02747 29-245 limits assumed, chain 3 of 3): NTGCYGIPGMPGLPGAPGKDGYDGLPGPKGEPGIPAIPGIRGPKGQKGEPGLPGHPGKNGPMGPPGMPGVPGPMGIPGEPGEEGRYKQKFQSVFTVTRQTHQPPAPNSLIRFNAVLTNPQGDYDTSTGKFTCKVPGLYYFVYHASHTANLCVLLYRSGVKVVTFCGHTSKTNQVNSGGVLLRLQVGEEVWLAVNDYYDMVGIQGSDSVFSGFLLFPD
T5 sequence (P08637 17-208 F176V): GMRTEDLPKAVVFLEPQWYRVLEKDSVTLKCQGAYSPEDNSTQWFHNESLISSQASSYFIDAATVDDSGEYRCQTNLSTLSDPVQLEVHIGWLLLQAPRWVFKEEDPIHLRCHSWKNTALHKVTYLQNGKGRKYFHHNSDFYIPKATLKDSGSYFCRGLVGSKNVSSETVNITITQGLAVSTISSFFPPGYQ
T4 sequence (P12314 16-288): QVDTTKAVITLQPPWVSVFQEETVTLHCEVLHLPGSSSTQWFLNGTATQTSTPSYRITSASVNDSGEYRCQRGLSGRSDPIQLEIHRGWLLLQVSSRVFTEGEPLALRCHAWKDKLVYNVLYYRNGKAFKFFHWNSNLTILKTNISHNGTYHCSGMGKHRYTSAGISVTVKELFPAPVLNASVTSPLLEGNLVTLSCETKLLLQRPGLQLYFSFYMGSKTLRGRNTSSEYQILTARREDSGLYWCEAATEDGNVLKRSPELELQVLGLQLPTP

| Binder | EC50 [1] [nM] | IC50 (TGFβ RII AP [2]) [nM] | IC50 (TGFβ RII AP [3]) [nM] | IC50 (TGFβ RII AP [4]) [nM] | Kd [5] [nM] | CDC activity EC50 (nM), BxPC3 target cells, human complement (human C1q) [nM] | CDC activity EC50 (nM), HEK293 target cells, human complement (human C1q) [nM] | CDC activity EC50 (nM), MDA-MB-231 target cells, human complement (human C1q) [nM] | CDC activity EC50 (nM), TGFRβII-HEK target cells, human complement (human C1q) [nM] | EC50 [6] [nM] | EC50 (FcγR1) [nM] | EC50 (FcγR2a(H)) [nM] | EC50 (FcγR3a (V)) [nM] | Kd [7] [nM] |
| --- | --- | --- | --- | --- | --- | --- | --- | --- | --- | --- | --- | --- | --- | --- |
| LY3022859 (antibody, IgG1, V domains shown, the antibody is disclosed in WO 2010/053814; also called TGFβRII mAb LY3022859; anti-TGFβ RII antibody IgG1) VH: QLQVQESGPGLVKPSETLSLTCTVSGGSISNSYFSWGWIRQPPGKGLEWIGSFYYGEKTYYNPSLKSRATISIDTSKSQFSLKLSSVTAADTAVYYCPRGPTMIRGVIDSWGQGTLVTVSS VL: EIVLTQSPATLSLSPGERATLSCRASQSVRSYLAWYQQKPGQAPRLLIYDASNRATGIPARFSGSGSGTDFTLTISSLEPEDFAVYYCQQRSNWPPTFGQGTKVEIK | 0.306 | 5.48 | 4.45 | 4.41 | 0.0106 | – | – | – | – | – | – | – | – | – |
| Antibody A (antibody, human IgG1, kappa, same variable regions as LY3022859; also called anti-TGFβ RII antibody IgG1 effector null) heavy: QLQVQESGPGLVKPSETLSLTCTVSGGSISNSYFSWGWIRQPPGKGLEWIGSFYYGEKTYYNPSLKSRATISIDTSKSQFSLKLSSVTAADTAVYYCPRGPTMIRGVIDSWGQGTLVTVSSASTKGPSVFPLAPSSKSTSGGTAALGCLVKDYFPEPVTVSWNSGALTSGVHTFPAVLQSSGLYSLSSVVTVPSSSLGTQTYICNVNHKPSNTKVDKRVEPKSCDKTHTCPPCPAPEAEGAPSVFLFPPKPKDTLMISRTPEVTCVVVDVSHEDPEVKFNWYVDGVEVHNAKTKPREEQYNSTYRVVSVLTVLHQDWLNGKEYKCKVSNKALPSSIEKTISKAKGQPREPQVYTLPPSREEMTKNQVSLTCLVKGFYPSDIAVEWESNGQPENNYKTTPPVLDSDGSFFLYSKLTVDKSRWQQGNVFSCSVMHEALHNHYTQKSLSLSPGK light: not shown | – | 4.83 | 4.4 | 4.36 | – | > 200 | > 200 | > 200 | > 200 | 0.277 | > 2000 | > 2000 | > 2000 | 0.0222 |
